From patent publication US20190352376A1
Numbering of substitutions follows the chain as printed. Several values for one entry are separate records, joined by “and”; a condition that tells them apart may be missing. Equal entries are not always repeated. Where two headings read alike, the source gives them in different places.

B1: F211-9D1 (antibody, V domains shown)
VL: DIVMSQSPSSLAVSVGEKVTMSCKSSQSLLNSRNQKNHLAWYQQKPGQSPKLLIYWASTRESGVPDRFSGDGSGTDFTLTISSVKAEDLAVYYCQQYYTYRTFGGGTKLEIK
VH: DVQLQESGPGLVKPSQSLSLTCSVTGYSITSDYYWNWIRQFPGNKLEWMAYIGYDGSKNYNPSLKNRISITRDTSKNQFFLKLNSVTTDDTATYYCTRDRANWDDYFDYWGQGTTLTVSS
B2: F211-11H12 (antibody, V domains shown)
VL: B1 VL with S69T
VH: B1 VH with S57T
B3: F211-9D1 (antibody, V domains shown)
VH: B1 VH
VL: B1 VL
B4: F211-11H12 (antibody, V domains shown)
VH: B1 VH with S57T
VL: B1 VL with S69T
B5: CHO-11H12 (antibody, V domains shown)
VL: B1 VL with S69T
VH: B1 VH with S57T
B6: F211-10A9 (antibody, V domains shown)
VL: DIVMTQSPSSLAMSVGQKVTMSCKSSQSLLNSDTQKNFLAWYQQKPGQSPKILVYFASTKESGVPDRFIGSGSGTDFTLTITSVQAEDLADYFCQQYYSIPLTFGAGTKLELK
VH: QIQLQQSGPELVKPGAPVKISCKASGYTFTDYYIHWVNQRPGQGLEWIGYIYPGNGHTVYNQKFKVRATLTADNPSSTAYLQLNSLTSEDSGVYFCAYDLFNYWGQGTLVTVSA
B7: F211-10A9 (antibody, V domains shown)
VH: B6 VH
VL: B6 VL
B8: CHO-10A9 (antibody, V domains shown)
VL: B6 VL
VH: B6 VH

Legend:
[1] = target: T1, peptide-conjugate (Example 1; lactosyl-Ser-…-Cys coupled to KLH) (influenza virus)
[2] = target: peptide of Example 1 (influenza virus); assay: SPR, mAb captured on anti-mouse Fc, peptide injected
[3] = target: peptide of Example 1 (influenza virus); assay: SPR, mAb captured on anti-mouse Fc, peptide injected; average
[4] = target: hemagglutinin of H5N1 A/Indonesia/05/2005 (influenza virus H5N1 A/Indonesia/05/2005)
[5] = target: hemagglutinin of H5N1 A/Indonesia/05/2005 (influenza virus H5N1 A/Indonesia/05/2005); assay: dot blot, 4M urea; rHA (Prot. Sc.), dot 7
[6] = target: hemagglutinin of H5N1 A/Vietnam/1203/2004 (influenza virus H5N1 A/Vietnam/1203/2004); assay: dot blot, 4M urea; rHA (Prot. Sc.), dot 8
[7] = target: hemagglutinin of H7N7 A/Netherlands/219/2003 (influenza virus H7N7 A/Netherlands/219/2003); assay: dot blot, 4M urea; rHA (Prot. Sc.), dot 9
[8] = target: hemagglutinin of H9N2 A/Hong Kong/1073/1999 (influenza virus H9N2 A/Hong Kong/1073/1999); assay: dot blot, 4M urea; rHA (Prot. Sc.), dot 10
Non-related protein = assay: dot blot, 4M urea; negative control, dot 16
[9] = target: T1, peptide-conjugate (Example 1; …); remark: listed apart in the source

Binder | Kd [3] | signal intensity (arbitrary fluorescent units) [4] | signal intensity (arbitrary fluorescent units) [5] | signal intensity (arbitrary fluorescent units) [6] | signal intensity (arbitrary fluorescent units) [7] | signal intensity (arbitrary fluorescent units) [8] | signal intensity (arbitrary fluorescent units) (Non-related protein) | also measured
B1 |  |  |  |  |  |  |  | EC50 (read off the curve) [1]: 0.03 µg/mL
B2 | 0.465 nM |  |  |  |  |  |  | Kd [2]: 0.465 nM
B3 |  | 46700 | 10100 | 46800 | 425 | 3760 | 47 | 
B4 |  | 43100 | 22200 | 45900 | 488 | 3570 | 38 | 
B5 | 0.639 nM |  |  |  |  |  |  | 
B6 | 0.338 nM |  |  |  |  |  |  | EC50 (read off the curve) [9]: 0.05 µg/mL and 0.03 µg/mL; Kd [2]: 0.338 nM
B7 |  | 28600 | 165 | 8260 | 42000 | 2970 | 34 | 
B8 | 0.365 nM |  |  |  |  |  |  | 
